Experimental data as given in patent US11279751B2.

T1: human PXR-GST (Invitrogen) (human) (UniProt O75469)
T1 sequence: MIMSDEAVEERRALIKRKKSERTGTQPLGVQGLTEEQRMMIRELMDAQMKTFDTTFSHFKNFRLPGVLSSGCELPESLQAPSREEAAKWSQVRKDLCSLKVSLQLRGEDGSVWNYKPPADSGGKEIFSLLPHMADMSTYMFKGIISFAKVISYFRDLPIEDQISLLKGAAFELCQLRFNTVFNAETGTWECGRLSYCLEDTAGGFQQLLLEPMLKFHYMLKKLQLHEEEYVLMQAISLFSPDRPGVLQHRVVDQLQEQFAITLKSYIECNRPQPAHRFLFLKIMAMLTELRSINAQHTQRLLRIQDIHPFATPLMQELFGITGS

B1: WS1 binder of SEQ ID NO: 48 (designed binder)
chain: MASTSGVSDVPRDLEVVAATPTSLLISWDAPAVPVSKYVIYYWPGALISSMQAFKVPGSKSTATISGLKPGVLYSIVVDALTGDGQGSYVWDPITITYRTEGSGS
B2: WS1 binder of SEQ ID NO: 49 (designed binder)
chain: MASTSGVSDVPRDLEVVAATPTSLLISWDAPAVTVHSYYITYQELQHHSVPQGFQVPGSKSTATISGLKPGVAYQIAVYAFTGPGLPPSDAPPIVIYYRTEGSGS
B3: Adnectin-1 (designed binder)
chain: MASTSGSTHYYKGTADLEVVAATPTSLLISWPPPYYVEGVTVFRITYGETGGNSPVQEFTVPYWTETATISGLKPGVDYTITVYAEMYPGSPWAGQVMDIQPISINYRTEGSGSHHHHHH
B4: Adnectin-2 (designed binder)
chain: MASTSGVSDVPRDLEVVAATPTSLLISWDAPAVTVNNYRITYQPLLQGSSIQHFDVPGSKSTATISGLKPGVGYQITVYASTYTHSKAYYSLPISIYYRTEGSGSHHHHHH
B5: Adnectin-3 (designed binder)
chain: MASTSGVSDVPRDLEVVAATPTSLLISWDAPAVPVSKYVIYYWPGALISSMQAFKVPGSKSTATISGLKPGVLYSIVVDALTGDGQGSYVWDPITITYRTEGSGSHHHHHH
B6: Adnectin-4 (designed binder)
chain: MASTSGVSDVPRDLEVVAATPTSLLISWDAPAVTVHSYYITYQELQHHSVPQGFQVPGSKSTATISGLKPGVAYQIAVYAFTGPGLPPSDAPPIVIYYRTEGSGSHHHHHH
B7: Adnectin-5 (designed binder)
chain: MGVSDVPRDLEVVAATPTSLLISWKYPYETISYYRITYGETGGNSPVQEFTVPYYRSTATISGLKPGVDYTITVYAVEASAPYSDGGSPISINYRTEIDKPSQHHHHHH
B8: Adnectin-6 (designed binder)
chain: MGVSDVPRDLEVVAATPTSLLISWSRPKGSIKYYRITYGETGGNSPVQEFTVPNSQYTATISGLKPGVDYTITVYAVYGYPYQEPHYYPISINYRTEIDKPSQHHHHHH
B9: Adnectin-7 (designed binder)
chain: MGVSDVPRDLEVVTATPTSLLISWDGPKYYVKYYRITYGETGGNSPVQEFTVPRTDHTATISGLKPGVDYTITVYAVKGQYGPYYGSRPISINYRTEIDKPSQHHHHHH
B10: Adnectin-8 (designed binder)
chain: MGVSDVPRDLEVVAATPTSLLISWSQPGRYVKYYRITYGETGGNSPVQEFTVPNDTYTATISGLKPGVDYTITVYAVYGKYGPYYGYDPISINYRTEIDKPSQHHHHHH

Each binder was assayed against T1, human PXR-GST (Invitrogen) (human) (assay: Biacore, binder at 0.5-2 µM over GST-PXR captured by anti-GST antibody).
In the case of B1, the RU bound is reported as 146 RU. Binder B2 has an RU bound of 81 RU.

The binders below were run against T1, human PXR-GST (Invitrogen) (human) (assay: SPR (Biacore T100), Adnectin series over human PXR-GST captured by anti-GST antibody).
Work on B3 yielded a Kd of 11.4 nM, a koff of 0.00119 s⁻¹ and a kon of 104000 M⁻¹ s⁻¹. Work on B4 yielded a Kd of 97.8 nM, a koff of 0.00458 s⁻¹ and a kon of 162000 M⁻¹ s⁻¹. B5 showed a Kd of 2.5 nM, a koff of 0.000378 s⁻¹ and a kon of 16200 M⁻¹ s⁻¹. Work on B6 yielded a Kd of 7.8 nM, a koff of 0.000168 s⁻¹ and a kon of 21500 M⁻¹ s⁻¹. In the case of B7, the Kd is reported as 5.4 nM, the koff is reported as 0.0027 s⁻¹ and the kon is reported as 509000 M⁻¹ s⁻¹. With B8 the Kd was 1.9 nM, the koff was 0.00126 s⁻¹ and the kon was 680000 M⁻¹ s⁻¹. For B9, the Kd was 0.31 nM, the koff was 8.82e-05 s⁻¹ and the kon was 288000 M⁻¹ s⁻¹. B10 gave a Kd of 4.4 nM, a koff of 0.000182 s⁻¹ and a kon of 41700 M⁻¹ s⁻¹.
